The star is where a group is joined. Biotin = O=C1N[C@H]2[C@H](CS[C@H]2CCCCC(=O)*)N1
Molecular target: 14-3-3 proteins present within the KLCCM
Assay: cell-based or functional assay

Biotin-PHCVPRDLSWLDLEANMCLP-OH (cysteine pairing not given here) [biotinylated R18]
MMP-1 expression in dermal fibroblasts treated with KLCCM (western blot, MMP-1/β-actin ratio): 68.8 % reduction

— US20110027269A1
